Reference: the DeepSol protein solubility set

Assay: soluble on expression in E. coli; label from the status in PepcDB or PDB records

| Sequence | soluble on expression in E. coli |
| --- | --- |
| MGSDKIHHHHHHVNVPTEFDINVLRADFDKTRLPRSRAQQMPGKMYTSSEVAALEKKRIFMDTWLCAGREEEIANPGDYMTREIASEPFVLSRDKEGKVHAFLNMCLHRGVPVAEGSGNARGFSCPYHAWYYDLQGTLLAAPLMEQSEANLKNCRLKPMRLALWRGWIFVSFNPDAMPFETFIAPFEENLWWFKSDECRLSERVVLQIDCNWKLLVENLIDIYHVPVLHKASFGGFLKSDKEKLSFNLLPRGGWYYEQKARPHSKSGQQLFPTLPWLEGMDSGTSMKAGIFPNLNLSLRFDSLRMWQVWPTSTGKSELHLYSLFMPAAFEDPDFQKHYEEYKSFLLGAIVNEDGPMVVKLQQAMGSEFYAPGPLSHLEGAVHHLMNYYLDVVSGEDRND | not soluble |
| MGSDKIHHHHHHVPVADRVSKVDVIAFRLAAHHLDERLGEGGLLDAAGRCGIQNSPPGSALLALHARVRNLTQQQVAGAVAKEKSLLQTWCMRGSPFYFPALDAPVFTTGVLPPTEEAMRHLVVGVEPALDKLGISLTEAVELADAEIHEVLSGRRLAINELGAEIATRIARRLPKRQRDIWEDNGPYAPGQPLGEGVVHFCVRILTLQRVLCLAPRVGNQSPFVLVDEWLGDPIPDIDPELARAELLRRYLRCYGPSTRGDFASWAGVHAGDTGPWWNLVGTELTPVEFGGTSWILTEDLDALRSAPAPTGVRLLPPGDPYTQMRDRETIVDKKYHREVWRMAGGPGTVLAGGKITGTWRSRKSGRKLALTITTFGSLPDRDRTSLQGEAGQVAALRGASSVDVAFGTY | not soluble |
| MGSDKIHHHHHHVQTPALIIVTGHPATGKTTLSQALATGLRLPLLSKDAFKEVMFDGLGWSDREWSRRVGATAIMMLYHTAATILQSGQSLIMESNFRVDLDTERMQNLHTIAPFTPIQIRCVASGDVLVERILSRIAQGARHPGHCDDRSPADLELVRSRGDIPPLPLGGPLLTVDTTFPEQIDMNAIVQWVRQHLQSGTAFL | not soluble |
| MGSDKIHHHHHHVRCLNEEIARKANREDECKGAFWEGRFKSQALLDEQALLACMMYVDLNPIRAGIADSLQSSDFTSIQERISALKQVNNTIISPQAPVQSAKNKPQTINKSLAKFDAATHSSQQTGIPFHFADYLELIDWTGRTIRHDKKGFIDNQRPKLLNELGIASDAWLSSAKDFRRQYSGISGRWDAMCAFKLQQGGKWCRGKSSCEALHPNQPLG | not soluble |
| MGSDKIHHHHHHVRVNVKSHGPRATFPAAPCLHRNPKVKLRLFPQEPAGLHLLSQMARQIVLATATLAEILGVPATEHNRLVEDMHDHEAKSAELHFALLTHMRTSFVNPLPREDMYALSRYLNEAMEKLDAAAELVALYKLERLPRRAADQLEIISRQAELTVDAMRQLNNLDDLEDYWIEILRLAKRAERTHRVWVADMIKDMKWAQYARNRDIANQLVEVTKDMRRIATQVGSIIVKES | not soluble |
| MGSDKIHHHHHHVSPSILGQGEVEQLLTGTYRSLQNDPGRDTWVLFDMRGENLINTYLSGSNDFVNNEIPSNNGTLLTMWRGYYKAIYNANTTLSILSNLEPSEKNTHIEAQARFLRAYAYYCLATRWDGVPIIKDNTLENVKRDKQSAVFNFIKEELSFCIDEGHLKPFGETSGAPFTVSLEAAQALMARLALTTGDMETAKNMAETLIANPKFKLSENYDNIFTTTNNSEIIFSFRNNTSEGGQNLYALFTTYNSPMKGSWFLCPSPESEKLFEDPADTRNNTCITTLESVSETYIIMNKFRDFTPLIVSRIAEMYLISAEAQGRNGLNRLNELRRSRGLNPYNNSDIASEEDYQKKVALERRKELYCEGFLFFDLIRTNKISEEVVSMNGKTNLYLPLPESEVQYNPNLNEYN | not soluble |
| MGSDKIHHHHHHVTDSDSQPVNEFPIAPPAPRKGRGAVTNLQGRYEVDQREAIDDGWLSLAEDDDEPKVLRTQVFEERAKTILTRNASPDIPFGVSLNPYRGCEHGCIYCFARPTHSYLGLSPGLDFESRIYAKVNAPELLERELSKKSYVPEPIALGVNTDAWQPAERDLQLTRRVIEVLSERHHPFAAITKSSLIERDLDLLAPMAARGQFMAAITITTLDAGIARTLEPRAATPSRRLRTIRTLSEAGIPVGVSIAPVIPFVTEPDMERVLEACAEAGASNASYIVLRLPWEVAPLFKDWLAAYFPDRAERVMGRVRDMRGGKDYDSSFSTRMKGEGLWADLLKQRFHKAVRRLGLNRRDRGILDMSHFRRIEPPRAGQPARNDSQLDLF | not soluble |
| MGSDKIHHHHHHVTLRQRIQAMSDCNRDPVSQITDLSGALVTIVPSLLACVGMVFASNLTDVTAEALLYDYREAANPLGQRLIARVPYQDWGAELHQTPETAIIPLDLSEALGCEGPATSPSLLANFVHILPNQAIETTAIATSQIFYVLRGQGVTRVADQEIAWTEGCCLALPADAIATHYAQTDSAFYWVHDAPLLRYLGVKPDRARFQPTLYRRQDLEATLAAIAADPQSRKANRLSVLLANQNFPQTRTITHTIWAMFGLLPPDVVQAPHRHQSVALDLILDCQPGCYTLVGTQLDERGQIRNPVRVDWRPYSVFVTPPGYWHAHYNESGQEAHLLPIQDAGLHTYLRTLDILFARHNGQISDEAA | not soluble |
| MGSDKIHHHHHHVYTIARLHNFGCAFLYSPLTYPLYRSWLRTLTIKGNIIAIGASVADKPVGLALAEILRDGSAKLLSIFVDPNSRCLGIGTALVHSLEEELILRNCTSIEIVYIAGKSTSLALECLLKKCNWPSAKPRMLICKTTTNDMTNAPWMKLSRMPAAYEIFPWMEITFQERVALKKQQEEKRWMASDAIPFDYEQDLEPINSIGLRYKGEVVGWLITHRTAPDTIRYTCSYVRPDIQKMGRIIPLYIRATQLQMEAGISRGTWTVSLMHTSMIAFVKKHMGPYLISLEQSMESSKLLSHL | not soluble |
| MGSENSALKSYTLREPPFTLPSGLAVYPAVLQDGKFASVFVYKRENEDKVNKAAKHLKTLRHPCLLRFLSCTVEADGIHLVTERVQPLEVALETLSSAEVCAGIYDILLALIFLHDRGHLTHNNVCLSSVFVSEDGHWKLGGMETVCKVSQATPEFLRSIQSIRDPASIPPEEMSPEFTTLPECHGHARDAFSFGTLVESLLTILNEQVSADVLSSFQQTLHSTLLNPIPKCRPALCTLLSHDFFRNDFLEVVNFLKSLTLKSEEEKTEFFKFLLDRVSCLSEELIASRLVPLLLNQLVFAEPVAVKSFLPYLLGPKKDHAQGETPCLLSPALFQSRVIPVLLQLFEVHEEHVRMVLLSHIEAYVEHFTQEQLKKVILPQVLLGLRDTSDSIVAITLHSLAVLVSLLGPEVVVGGERTKIFKRTAPSFTKNTDLSLEGDPFSQPIKFPINGLSDVKNTSEDSENFPSSSKKSEEWPDWSEPEEPENQTVNIQIWPREPCDDVKSQCTTLDVEESSWDDCEPSSLDTKVNPGGGITATKPVTSAEQKPIPALLSLTEESMPWKSSLPQKISLVQRGDDADQIEPPKVSSQERPLKVPSELGLGEEFTIQVKKKPVKDPEMDWFADMIPEIKPSAAFLILPELRTEMVPKKDDVSPVMQFSSKFAAAEITEGEAEGWEEEGELNWEDNNW | soluble |
| MGSGILFVFAIGAIPSQAQDIGSTDRLNVENWQEWETVGEAQLTWFVFDIYRSRLKAPNGQYLVSTDVSPHPFALEINYQRDISKQQLLEVTDEQWQKLGFPKSNRQQWITQLSFIFPSIKNGDELTYVTDGDKGQIIYRQAGTKTQKMVGEITDERMNDAFLSIWLSPKTEFPKLRKQLIGQVRP | not soluble |
| MGSHHHHHHDITSLYKKAGSAAAVLEENLYFGGSFTMANVNKTPGKTRRAEVAGGGFAGLTAAIALKQNGWDVRLHEKSSELRAFGAGIYLWHNGLRVLEGLGALDDVLQGSHTPPTYETWMHNKSVSKETFNGLPWRIMTRSHLHDALVNRARALGVDISVNSEAVAADPVGRLTLQTGEVLEADLIVGADGVGSKVRDSIGFKQDRWVSKDGLIRLIVPRMKKELGHGEWDNTIDMWNFWPRVQRILYSPCNENELYLGLMAPAADPRGSSVPIDLEVWVEMFPFLEPCLIEAAKLKTARYDKYETTKLDSWTRGKVALVGDAAHAMCPALAQGAGCAMVNAFSLSQDLEEGSSVEDALVAWETRIRPITDRCQALSGDYAANRSLSKGNMFTPAALEAARYDPLRRVYSWPQ | soluble |
| MGSHHHHHHDITSLYKKAGSENLYFQMKLRYLNILKEKLGREPTFVELQAFSVMWSEHCGYSHTKKYIRRLPKTGFEGNAGVVNLDDYYSVAFKIESHNHPSAIEPYNGAATGVGGIIRDVLAMGARPTAIFDSLHMSRIIDGIIEGIADYGNSIGVPTVGGELRISSLYAHNPLVNVLAAGVVRNDMLVDSKASRPGQVIVIFGGATGRDGIHGASFASEDLTGDKATKLSIQVGDPFAEKMLIEAFLEMVEEGLVEGAQDLGAGGVLSATSELVAKGNLGAIVHLDRVPLREPDMEPWEILISESQERMAVVTSPQKASRILEIARKHLLFGDVVAEVIEEPVYRVMYRNDLVMEVPVQLLANAPEEDIVEYTPGKIPEFKRVEFEEVNAREVFEQYDHMVGTDTVVPPGFGAAVMRIKRDGGYSLVTHSRADLALQDTYWGTLIAVLESVRKTLSVGAEPLAITNCVNYGDPDVDPVGLSAMMTALKNACEFSGVPVASGNASLYNTYQGKPIPPTLVVGMLGKVNPQKVAKPKPSKVFAVGWNDFELEREKELWRAIRKLSEEGAFILSSSQLLTRTHVETFREYGLKIEVKLPEVRPAHQMVLVFSERTPVVDVPVKEIGTLSR | soluble |
| MGSKKLKRVGLSQELCDRLSRHQILTCQDFLCLSPLELMKVTGLSYRGVHELLCMVSRACAPKMQTAYGIKAQRSADFSPAFLSTTLSALDEALHGGVACGSLTEITGPPGCGKTQFCIMMSILATLPTNMGGLEGAVVYIDTESAFSAERLVEIAESRFPRYFNTEEKLLLTSSKVHLYRELTCDEVLQRIESLEEEIISKGIKLVILDSVASVVRKEFDAQLQGNLKERNKFLAREASSLKYLAEEFSIPVILTNQITTHLSGALASQADLVSPADDLSLSEGTSGSSCVIAALGNTWSHSVNTRLILQYLDSERRQILIAKSPLAPFTSFVYTIKEEGLVLQAYGNS | soluble |
| MGSLDHGAKEQLQSEEFGERKQFEDKELGAKKDEALHVLEGLITRSKTKLLNQAITTLLQKIEGSLKLEACPTTLVVIQAV | not soluble |
| MGSQVQKSDEITFSDYLGLMTCVYEWADSYDSKDWDRLRKVIAPTLRIDYRSFLDKLWEAMPAEEFVGMVSSKQVLGDPTLRTQHFIGGTRWEKVSEDEVIGYHQLRVPHQRYKDTTMKEVTMKGHAHSANLHWYKKIDGVWKFAGLKPDIRWGEFDFDRIAEDGRETFGDK | soluble |
| MGSSHHHHHHGKTIFVIVPTNEEQVAFLEALAKQDELNFDWQNPPTEPGQPVVILIPSDMVEWFLEMLKAKGIPFTVYVEEGGSENLYFQGGGGGGAHSLMRQMMLASVIRFTAVFLGIRRCRGAFVVAPLFVLQPLLQHLQQLITHPLTCLQGGIQWQLHALVEHLVHLQHLPSPRVQLSHVTKKRRAPVRKVVCGRIIHVHRTLLLLKQLRLLGVPGTQRAESSEHGGEPLTAVLVQLDKSIASRSGDNGDGGGRCR | not soluble |
| MGSSHHHHHHMKKARMTVDKDYKIAEIDKRIYGSFVEHLGRAVYDGLYQPGNSKSDEDGFRKDVIELVKELNVPIIRYPGGNFVSNYFWEDGVGPVEDRPRRLDLAWKSIEPNQVGINEFAKWCKKVNAEIMMAVNLGTRGISDACNLLEYCNHPGGSKYSDMRIKHGVKEPHNIKVWCLGNAMDGPWQVGHKTMDEYGRIAEETARAMKMIDPSIELVACGSSSKDMPTFPQWEATVLDYAYDYVDYISLHQYYGNKENDTADFLAKSDDLDDFIRSVIATCDYIKAKKRSKKDIYLSFDEWNVWYHSNNEDANIMQNEPWRIAPPLLEDIYTFEDALLVGLMLITLMKHADRIKIACLAQLINVIAPIVTERNGGAAWRQTIFYPFMHASKYGRGIVLQPVINSPLHDTSKHEDVTDIESVAIYNEEKEEVTIFAVNRNIHEDIVLVSDVRGMKDYRLLEHIVLEHQDLKIRNSVNGEEVYPKNSDKSSFDDGILTSMLRRASWNVIRIGK | soluble |
